Laboratory results published in US20170226172A1.

B1: Wild Type Human FGF23 c-tail 180-251 (72 amino acid peptide) (peptide)
peptide: SAEDDSERDPLNVLKPRARMTPAPASCSQELPSAEDNSPMASDPLGVVRGGRVNTHAGGTGPEGCRPFAKFI
B2: N-terminal FGF23 c-tail Fc fusion (Fc fusion, not shown: a dimerising Fc or GST; small tags and cut ends)
chain: B1 peptide

Target: FGFR1c/alpha-klotho receptor complex, human, pre-formed (SPR analyte) (human) (UniProt P11362)
Experiment: SPR competition: FGF23 on the chip surface, FGFR1c-alphaKlotho complex in solution mixed with the competitor; Ki listed at the upper right of the sheet

Ki	Binder
31 nM	B1
46 nM	B2
